{"source": "patent US20040161756A1", "about": "“Substrate linked directed evolution (slide)” (priority 2000, published 2004)", "molecules": {"B1": {"name": "Cre: site specific recombinase that recognises the 34 bp loxP sequence; wild type starting protein (protein, UniProt P06956 1-343, looked up)", "Recombinase cre": "MSNLLTVHQNLPALPVDATSDEVRKNLMDMFRDRQAFSEHTWKMLLSVCRSWAAWCKLNNRKWFPAEPEDVRDYLLYLQARGLAVKTIQQHLGQLNMLHRRSGLPRPSDSNAVSLVMRRIRKENVDAGERAKQALAFERTDFDQVRSLMENSDRCQDIRNLAFLGIAYNTLLRIAEIARIRVKDISRTDGGRMLIHIGRTKTLVSTAGVEKALSLGVTKLVERWISVSGVADDPNNYLFCRVRKNGVAAPSATSQLSTRALEGIFEATHRLIYGAKDDSGQRYLAWSGHSARVGAARDMARAGVSIPEIMQAGGWTNVNIVMNYIRNLDSETGAMVRLLEDGD"}}, "key": {"pSVpaX (loxP sites)": {"system": "pSVpaX (loxP sites)", "assay": "Recombination reporter assay in CHO cells, pSVpaX", "assay_type": "cell-based, chinese hamster", "conditions": "co-transfection, within 36 hours, from β-galactosidase activities", "from_the_text": "(§1) a) Plasmids expressing the depicted recombinases from the PGK promoter were co-transfected with the recombination reporter plasmids pSVpaX (loxP sites) or pSVpaH (loxH sites) into CHO cells. Illustrations of plasmids pSVpaX, pSVpaH, and pSVpaZ is presented. White triangles depict loxH sites, grey triangles loxP sites, and black triangles FRT sites. SV40═SV40 early promoter; pac=puromycin acetytransferase.\n(§2) Cell culture: Chinese hamster ovary (CHO) cells were transfected with plasmid DNA using Lipofectamine (GibcoBRL). Crude cell extracts were prepared after 36 hours and Luciferase activity of cell extracts were determined with the Luciferase assay system from Promega. Relative β-galactosidase activities were measured with the Galacto-Light kit from Tropix. The Cre recombination reporter plasmid pSVpaX has been described earlier (Buchholz et al., Nucleic Acids Res 24, 4256-62 (1996)). pSVpaH is identical to pSVpaX except that the loxP sites were exchanged with loxH sites. […] Recombination efficiencies were calculated from measured β-galactosidase activities, corrected by transformation efficiencies assayed by Luciferase measurements.\n(§3) The recombination properties of Fre1 and Fre3 were evaluated in mammalian cells, by co-transfecting chinese hamster ovary (CHO) cells with reporter and recombinase expression plasmids (FIG. 6a). […]"}, "pSVpaH (loxH sites)": {"system": "pSVpaH (loxH sites)", "assay": "Recombination reporter assay in CHO cells, pSVpaH", "assay_type": "cell-based, chinese hamster", "conditions": "co-transfection", "from_the_text": "as §1, §2, §3"}, "loxP sites": {"system": "loxP sites", "assay": "Recombination of pEVO-loxP^2 excision substrate in E. coli", "assay_type": "cell-based", "conditions": "expressed from the arabinose promoter, even at very low expression levels", "from_the_text": "(§4) Evolution vectors: The pEVO vector series is based on the plasmid pBAD-33 (Guzman et al., J Bacteriol 177, 4121-30 (1995)). pEVO-loxP^2, pEVO-3, pEVO-6 and pEVO-10 are identical except for the recognition target sites for the recombinase (see also FIG. 3). pEVO-loxP^2 contains two tandemly repeated loxP sites as they exist in the bacteriophage P1, spaced by 690 bp. pEVO-3, contains two recognition target sites which differ in 3 nucleotides per halfsite from a loxP site. The spacer in pEVO-3 is identical to the one found in loxP sites from bacteriophage P1. pEVO-6 recognition target sites (loxH) have the spacer sequence altered in all eight positions in addition to the three nucleotides changes present in pEVO-3. pEVO-10 contains two loxH sites as well as two loxP sites, which are intertwined. Recombinase expression levels can be titrated by the amount of L-arabinose added to the medium.\n(§5) To test the method of the invention, Cre recombinase was first cloned into the vector pEVO-loxP^2, which contains two loxP sites, oriented as an excision substrate. […] As a first step, the three nucleotides different in the loxH halfsites were introduced (pEVO-3). […] Libraries of mutated recombinase were cloned into pEVO3 and screened at low recombinase expression levels."}, "[1]": {"system": "recognition target sites which differ in 3 nucleotides per halfsite from a loxP site", "assay": "Recombination of pEVO-3 in E. coli", "assay_type": "cell-based", "from_the_text": "as §4, §5"}, "loxH sites": {"system": "loxH sites", "assay": "Recombination of loxH sites in E. coli (initial experiments and pEVO-6 vector, plasmid gel)", "assay_type": "cell-based", "from_the_text": "as §4"}}, "data": [{"molecule": "B1", "values": [{"measurement": "reporter pSVpaX recombined", "setting": "pSVpaX (loxP sites)", "result": "approximately 75%"}, {"measurement": "recombination of pSVpaH", "setting": "pSVpaH (loxH sites)", "result": "little recombination"}, {"measurement": "recombination of plasmid pEVO-loxP^2", "setting": "loxP sites", "result": "efficiently recombined"}, {"measurement": "recombination of pEVO-3", "setting": "[1]; higher expression levels", "result": "recombination was observed"}, {"measurement": "recombination of pEVO-3", "setting": "[1]; low expression levels", "result": "did not recombine"}, {"measurement": "recombination of pEVO-6 (loxH sites)", "setting": "loxH sites; even when induced with arabinose", "result": "no recombination"}, {"measurement": "recombination of loxH sites", "setting": "loxH sites; initial recombination experiments in E. coli", "result": "does not recombine this site at measurable frequency"}]}]}
